Measured values reported in US10487307B2, “Culture method for pluripotent stem cells” (FUJIFILM CORPORATION, priority 2013, dated 2019).

Assays:
iPS cells = assay: Growth evaluation, number of cells after 3 days; format: cell-based, human; settings: 5,000 cells/well
Experimental: By adding RCP-1 to RCP-11 and Human Recombinant Laminin-511 as control at the concentration shown in Table 9, samples 1 to 12 were prepared. The samples were seeded into a 96-well plate, onto which each of the polypeptides was adsorbed in the same manner as in <Cell adhesiveness evaluation 1>, at a ratio of 5,000 cells/well and cultured for 3 days in a CO2 incubator at 37° C. The number of cells after 3 days was calculated in the same manner as in <Cell adhesiveness evaluation 1>. In Table 9, the number of cells after 3 days is expressed as a ratio calculated by regarding the number of cells obtained by using the sample 1 as being 100%.

human iPS cells ("Tic") = assay: Cell adhesiveness evaluation 1 (ALP activity of adhesive iPS cells); format: cell-based; settings: 30,000 cells/well, 24 hours, natural vitronectin (sample 15) = 100%, n=3
Summary of the method: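 Peptides and controls were adsorbed onto wells for 2 h at 37 °C. Single-cell human iPS cells in TeSR2 with 10 μM Y-27362 were seeded at 30,000 cells/well. After 24 h, non-adherent cells were washed off and adherent cells fixed; cell number came from ALP activity via a calibration curve. Adhesion is expressed relative to natural vitronectin (100%), n=3.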

[1] = Aggregation after dialysis of purified polypeptide solution; format: physicochemical; parameters: key: G: The formation of an aggregate was not observed.; A: The formation of particles having a particle size of about 100 nm was observed.; B: The formation of an aggregation of particles having a particle size of equal to or greater than 1 mm was visually observed
Experimental: For RCP-1 to RCP-11, each of the purified polypeptide solutions was dialyzed using Slide-A-Lizer (3.5 K MWCO.). Basically, by using a dialysis buffer (PBS, 1.5 M NaCl, 0.5 M L-arginine, 1 mM EDTA, pH 7.4) as an outer dialysate, urea was removed by stepwise dialysis. The concentration of the end-product of dialysis was calculated from the absorbence at 280 nm by using NanoDrop (Thermo Fisher Scientific Inc.).
Whether or not aggregation was occurred was evaluated based on the scale of A, and B as shown below.
G: The formation of an aggregate was not observed.
A: The formation of particles having a particle size of about 100 nm was observed.
B: The formation of an aggregation of particles having a particle size of equal to or greater than 1 mm was visually observed.

Molecule	Number of cells after 3 days (%) (iPS cells; added amount 10 μg/cm^2, sample 1 (RCP-1) = 100%)	Cell adhesion rate (%) (human iPS cells ("Tic"); added amount 10 μg/cm^2)	Aggregation [1]	Number of cells after 3 days (%) (iPS cells; added amount 5 μg/cm^2, sample 1 (RCP-1) = 100%)	Cell adhesion rate (%) (human iPS cells ("Tic"); added amount 5 μg/cm^2)	Number of cells after 3 days (%) (iPS cells; added amount 80 μg/cm^2, sample 1 = 100%)	Cell adhesion rate (%) (human iPS cells ("Tic"); added amount 200 pmol/cm^2)
RCP-5: recombinant polypeptide for culture, SEQ ID NO: 19; vitronectin positions 1-55, 302-341, 342-373 (protein, Vitronectin-derived Recombinant Protein (RCP-5)) MDQESCKGRCTEGFNVDKKCQCDELCSYYQSCCTDYTAECKPQVTRGDVFTMPEDEFWGRTSAGTRQPQFISRDWHGVPGQVDAAMAGRIYISGMAPRPSLAKKQRFRHRNRKGYRSQRGHSRGRNQN	121.2	94.1 ± 6.5	G				
RCP-11: recombinant polypeptide for culture, SEQ ID NO: 25; vitronectin positions 1-55, 269-277, 295-341, 342-373, C274S (protein, Vitronectin-derived Recombinant Protein (RCP-11), vitronectin positions 1-55, 269-277, 295-341, 342-373, C274S) MDQESCKGRCTEGFNVDKKCQCDELCSYYQSCCTDYTAECKPQVTRGDVFTMPEDESQEESEGSEDIFELLFWGRTSAGTRQPQFISRDWHGVPGQVDAAMAGRIYISGMAPRPSLAKKQRFRHRNRKGYRSQRGHSRGRNQN			A	153.5	95.9 ± 4.6		
RCP-1: recombinant polypeptide for culture, SEQ ID NO: 15; human vitronectin positions 1-55 and 269-459 with N-terminal methionine (protein, Vitronectin-derived Recombinant Protein (RCP-1)) MDQESCKGRCTEGFNVDKKCQCDELCSYYQSCCTDYTAECKPQVTRGDVFTMPEDEPSQEECEGSSLSAVFEHFAMMQRDSWEDIFELLFWGRTSAGTRQPQFISRDWHGVPGQVDAAMAGRIYISGMAPRPSLAKKQRFRHRNRKGYRSQRGHSRGRNQNSRRPSRATWLSLFSSEESNLGANNYDDYRMDWLVPATCEPIQSVFFFSGDKYYRVNLRTRRVDTVDPPYPRSIAQYWLGCPAPGHL			A			100.0	109.3 ± 5.3
